Experimental data published in patent US20050222387A1, “Smac-peptides as therapeutics against cancer and autoimmune diseases” (Deutsches Krebsforschungzentrum Stiftung Des Oeffentlichen …, priority 2002, published 2005).

Assay: Neurotoxicity by compound neurological score in the glioblastoma model
Type: in vivo, athymic mice
Details: TRAIL alone, local administration
Method: Animal studies. 5×10^4 U87MG human glioblastoma cells were stereotactically implanted into the right striatum of athymic mice (CD1 nu/nu, Charles River, Sulzfeld, Germany). At day 7 or at day 7 and day 9, mice were locally treated with Apo2L/TRAIL (2 μg/4 μl buffer) and/or Smac (1 mg/4 μl buffer) or buffer only. Tumor cell volumes were measured at day 21 or 35 after tumor cell implantation as previously described. Neurological symptoms (alertness, behaviour, weight loss, focal neurological deficits) were evaluated daily and a compound score of all categories was formed (++: severe deficits, +: deficits, −: no relevant deficits). Statistical significance was assessed using ANOVA.

## TRAIL: TNF-related apoptosis inducing ligand, death receptor ligand; recombinant human TRAIL (PeproTech)
  mice that developed neurological deficits: 2 of 6
